These results are taken from PMC12990809.

What all share (test): pulldown
Data set [1] concerns the target T1, PK11774.1 (Cannabis sativa) (UniProt A0A7J6FQM5).
T1 sequence: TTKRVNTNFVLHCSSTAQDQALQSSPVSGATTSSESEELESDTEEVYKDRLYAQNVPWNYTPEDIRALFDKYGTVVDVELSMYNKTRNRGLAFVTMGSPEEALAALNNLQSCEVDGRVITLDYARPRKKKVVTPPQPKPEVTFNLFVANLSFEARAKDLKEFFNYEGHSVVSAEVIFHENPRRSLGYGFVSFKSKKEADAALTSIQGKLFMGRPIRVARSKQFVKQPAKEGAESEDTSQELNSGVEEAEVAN
Particulars: 20 nM protein, 1.5 uM RNA pool; 20 mM HEPES pH 7.8, 70 mM KCl, 10 mM NaCl, 10% glycerol, 2 mM DTT, 0.1 ug/uL BSA; 30 min, 4 C.

The target of data set [2] is SNRPB2 (Meleagris gallopavo) (UniProt G1N364). Particulars: 20 nM protein, 1.5 uM RNA pool; 20 mM HEPES pH 7.8, 70 mM KCl, 10 mM NaCl, 10% glycerol, 2 mM DTT, 0.1 ug/uL BSA; 30 min, 4 C.
Sequence of SNRPB2 (Meleagris gallopavo) (G1N364 entry or part of it): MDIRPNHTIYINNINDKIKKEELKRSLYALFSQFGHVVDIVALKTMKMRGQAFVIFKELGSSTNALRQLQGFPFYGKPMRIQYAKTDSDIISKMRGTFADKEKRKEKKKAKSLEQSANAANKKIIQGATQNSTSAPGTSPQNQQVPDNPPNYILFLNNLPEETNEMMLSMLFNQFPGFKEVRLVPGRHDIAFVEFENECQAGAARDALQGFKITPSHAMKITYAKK
Data set [3] addresses T2, NEMVEDRAFT_v1g214798 (Nematostella vectensis) (UniProt A7SN30).
T2 sequence: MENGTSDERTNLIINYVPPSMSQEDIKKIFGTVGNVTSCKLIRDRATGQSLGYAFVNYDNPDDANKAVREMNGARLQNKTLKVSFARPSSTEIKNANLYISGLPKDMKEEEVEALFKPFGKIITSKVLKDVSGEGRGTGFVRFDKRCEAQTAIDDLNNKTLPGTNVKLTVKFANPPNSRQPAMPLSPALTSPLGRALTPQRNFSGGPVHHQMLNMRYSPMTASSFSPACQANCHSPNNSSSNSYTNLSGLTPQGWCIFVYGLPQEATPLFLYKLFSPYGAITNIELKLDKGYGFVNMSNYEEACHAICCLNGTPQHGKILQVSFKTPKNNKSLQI
Particulars: 20 nM protein, 1.5 uM RNA pool; 20 mM HEPES pH 7.8, 70 mM KCl, 10 mM NaCl, 10% glycerol, 2 mM DTT, 0.1 ug/uL BSA; 30 min, 4 C.

Data set [4] deals with T3, Smp_032060 (Schistosoma mansoni) (UniProt G4LYM0).
T3 sequence: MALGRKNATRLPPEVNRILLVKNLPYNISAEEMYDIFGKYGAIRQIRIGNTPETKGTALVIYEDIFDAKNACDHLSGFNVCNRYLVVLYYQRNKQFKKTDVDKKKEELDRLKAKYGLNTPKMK
The note with it: 20 nM protein, 1.5 uM RNA pool; 20 mM HEPES pH 7.8, 70 mM KCl, 10 mM NaCl, 10% glycerol, 2 mM DTT, 0.1 ug/uL BSA; 30 min, 4 C.

In another data set the target is u2af2b (Danio rerio) (UniProt A0ACM8Q3Q6). Particulars: 20 nM protein, 1.5 uM RNA pool; 20 mM HEPES pH 7.8, 70 mM KCl, 10 mM NaCl, 10% glycerol, 2 mM DTT, 0.1 ug/uL BSA; 30 min, 4 C.
Sequence of u2af2b (Danio rerio) (A0ACM8Q3Q6 entry or part of it): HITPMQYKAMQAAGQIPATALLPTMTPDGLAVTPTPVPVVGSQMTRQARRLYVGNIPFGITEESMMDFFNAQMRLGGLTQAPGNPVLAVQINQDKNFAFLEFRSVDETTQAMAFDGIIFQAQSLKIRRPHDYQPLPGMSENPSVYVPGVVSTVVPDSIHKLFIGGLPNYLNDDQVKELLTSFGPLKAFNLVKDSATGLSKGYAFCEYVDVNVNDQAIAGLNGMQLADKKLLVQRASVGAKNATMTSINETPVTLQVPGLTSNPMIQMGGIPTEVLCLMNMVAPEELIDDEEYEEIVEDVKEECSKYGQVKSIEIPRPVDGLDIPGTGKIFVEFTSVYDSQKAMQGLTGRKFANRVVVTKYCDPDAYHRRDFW
The target of data set [5] is T4, DDB_G0270634 (Dictyostelium discoideum) (UniProt Q55D63).
T4 sequence: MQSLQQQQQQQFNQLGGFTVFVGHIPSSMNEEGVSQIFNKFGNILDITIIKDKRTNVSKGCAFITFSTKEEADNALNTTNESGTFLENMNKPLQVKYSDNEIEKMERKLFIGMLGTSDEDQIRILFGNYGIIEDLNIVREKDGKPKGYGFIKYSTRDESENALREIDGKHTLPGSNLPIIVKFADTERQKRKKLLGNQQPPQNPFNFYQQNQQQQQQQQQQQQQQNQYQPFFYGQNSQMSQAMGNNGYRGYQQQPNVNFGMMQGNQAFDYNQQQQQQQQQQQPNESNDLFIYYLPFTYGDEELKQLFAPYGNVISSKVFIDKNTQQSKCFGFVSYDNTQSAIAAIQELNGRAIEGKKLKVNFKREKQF
Particulars: 20 nM protein, 1.5 uM RNA pool; 20 mM HEPES pH 7.8, 70 mM KCl, 10 mM NaCl, 10% glycerol, 2 mM DTT, 0.1 ug/uL BSA; 30 min, 4 C.

The target in another data set is HNRNPC (Homo sapiens) (UniProt P07910). The note with it: 20 nM protein, 1.5 uM RNA pool; 20 mM HEPES pH 7.8, 70 mM KCl, 10 mM NaCl, 10% glycerol, 2 mM DTT, 0.1 ug/uL BSA; 30 min, 4 C (protocol of this paper; not …); cited from earlier work.
Sequence of HNRNPC (Homo sapiens) (P07910 1-131): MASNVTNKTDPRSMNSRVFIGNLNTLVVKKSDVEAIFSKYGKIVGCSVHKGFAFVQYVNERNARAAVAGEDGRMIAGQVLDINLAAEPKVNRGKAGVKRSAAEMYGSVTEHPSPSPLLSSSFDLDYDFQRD
For data set [6], the target named is T5, nrd1 (Schizosaccharomyces pombe) (UniProt Q09702).
T5 sequence: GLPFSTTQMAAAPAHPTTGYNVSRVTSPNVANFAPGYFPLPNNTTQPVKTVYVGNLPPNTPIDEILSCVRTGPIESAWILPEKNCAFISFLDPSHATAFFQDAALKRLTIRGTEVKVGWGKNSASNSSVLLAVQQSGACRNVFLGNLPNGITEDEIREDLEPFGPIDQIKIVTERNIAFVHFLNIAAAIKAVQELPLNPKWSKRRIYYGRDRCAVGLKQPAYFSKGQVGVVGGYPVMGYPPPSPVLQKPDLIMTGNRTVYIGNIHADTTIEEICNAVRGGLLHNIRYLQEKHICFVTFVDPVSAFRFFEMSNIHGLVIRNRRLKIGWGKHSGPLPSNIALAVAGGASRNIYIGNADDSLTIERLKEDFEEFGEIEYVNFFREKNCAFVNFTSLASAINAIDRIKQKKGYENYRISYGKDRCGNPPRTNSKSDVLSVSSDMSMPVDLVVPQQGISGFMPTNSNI
Particulars: 20 nM protein, 1.5 uM RNA pool; 20 mM HEPES pH 7.8, 70 mM KCl, 10 mM NaCl, 10% glycerol, 2 mM DTT, 0.1 ug/uL BSA; 30 min, 4 C.

For data set [7], the target named is T6, mei2 (Schizosaccharomyces pombe) (UniProt P08965).
T6 sequence: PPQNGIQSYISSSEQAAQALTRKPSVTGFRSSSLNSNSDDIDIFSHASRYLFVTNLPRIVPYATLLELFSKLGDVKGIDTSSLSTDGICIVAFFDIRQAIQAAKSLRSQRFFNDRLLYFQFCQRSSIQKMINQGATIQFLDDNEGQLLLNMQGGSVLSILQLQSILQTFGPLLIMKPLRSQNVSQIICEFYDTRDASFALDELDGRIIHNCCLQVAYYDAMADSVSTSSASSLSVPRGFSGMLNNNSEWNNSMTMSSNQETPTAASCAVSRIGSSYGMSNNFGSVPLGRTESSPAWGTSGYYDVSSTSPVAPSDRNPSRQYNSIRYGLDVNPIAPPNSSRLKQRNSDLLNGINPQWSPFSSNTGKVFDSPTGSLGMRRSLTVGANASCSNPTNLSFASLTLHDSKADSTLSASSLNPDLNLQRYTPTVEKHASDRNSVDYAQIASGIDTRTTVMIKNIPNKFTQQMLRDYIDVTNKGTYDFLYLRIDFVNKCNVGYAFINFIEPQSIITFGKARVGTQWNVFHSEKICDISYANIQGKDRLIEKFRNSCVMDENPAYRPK
The note with it: 20 nM protein, 1.5 uM RNA pool; 20 mM HEPES pH 7.8, 70 mM KCl, 10 mM NaCl, 10% glycerol, 2 mM DTT, 0.1 ug/uL BSA; 30 min, 4 C.

The substance UGGAGNG [RNAcompete motif RNCMPT00403] showed a binding signal (z-score (mean of top ten 7-mers)) in data set [1] of 10.9.

UUGCAC [RNAcompete motif RNCMPT00425]: the binding signal (z-score (mean of top ten 7-mers)) in [2] came to 7.95.

Turning to UUNUUUU [RNAcompete motif RNCMPT00421], in data set [3], the binding signal (z-score (mean of top ten 7-mers)) turned out to be 11.9.

For the substance UUUUNCC [RNAcompete motif RNCMPT00396], in [4], the binding signal (z-score (mean of top ten 7-mers)) came out at 9.57.

In the data set with u2af2b (Danio rerio), UUUUUC [RNAcompete motif RNCMPT00418] displayed a binding signal (z-score (mean of top ten 7-mers)) of 14.4.

Consider UUUUUGU [RNAcompete motif RNCMPT00399], for which the binding signal (z-score (mean of top ten 7-mers)) in data set [5] was determined as 8.63.

With UUUUUU [RNAcompete motif RNCMPT00025], the binding signal (z-score (mean of top ten 7-mers)) with HNRNPC (Homo sapiens) is 15.8.

As for UUUUUUC [RNAcompete motif RNCMPT00414], the binding signal (z-score (mean of top ten 7-mers)) in data set [6] was found to be 11.9.

In data set [7], UUUUUUG [RNAcompete motif RNCMPT00413] gave a binding signal (z-score (mean of top ten 7-mers)) of 14.2.
